{"source": "paper PMC7397744", "assay": "crystallisation trials", "details": "glycan lost; control: wild type"}
{"protein": "human lysosomal acid lipase (HLAL): enzymatically deglycosylated (protein) parent chain: MKMRFLGLVVCLVLWTLHSEGSGGKLTAVDPETNMNVSEIISYWGFPSEEYLVETEDGYILCLNRIPHGRKNHSDKGPKPVVFLQHGLLADSSNWVTNLANSSLGFILADAGFDVWMGNSRGNTWSRKHKTLSVSQDEFWAFSYDEMAKYDLPASINFILNKTGQEQVYYVGHSQGTTIGFIAFSQIPELAKRIKMFFALGPVASVAFCTSPMAKLGRLPDHLIKDLFGDKEFLPQSAFLKWLGTHVCTHVILKELCGNLCFLLCGFNERNLNMSRVDVYTTHSPAGTSVQNMLHWSQAVKFQKFQAFDWGSSAKNYFHYNQSYPPTYNVKDMLVPTAVWSGGHDWLADVYDVNILLTQITNLVFHESIPEWEHLDFIWGLDAPWRLYNKIINLMRKYQ", "values": [{"measurement": "other: crystallisability", "value": "no change"}]}
